According to the supplement of paper PMC10567573:

B1: GLTSCR2 (parent)
chain: FQRRNMIEPRERAKFKRKYKVKLV
B2: ZNF232 (parent)
chain: GKAYGWCSELIRHRRVHARKEPSH

Variants of: B1
Assay: protein stability index of a GFP-peptide fusion (GPS, HEK-293T) (PSI 1-6); higher = more stable
Settings: c terminus: a fixed tail appended
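Note: lentivirally expressed fusions sorted by FACS into six bins by GFP to DsRed ratio, PSI derived from sequencing read proportions per bin multiplied by bin number.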

Protein stability index: each site, then its substitutions
R3: A 2.8
F1: S 2.77 | V 2.81 | E 2.57 | N 2.59 | K 2.96 | R 3.03 | C 2.69 | M 2.08 | Q 2.99 | L 3.01 | Y 2.51 | A 3.04 | T 3.11 | P 3.05 | D 2.83 | H 2.69 | W 2.41 | I 3.03
Q2: W 1.84 | I 2.08 | L 1.94 | K 2.21 | C 1.99 | V 1.57 | N 2.42 | M 2.7 | D 2.35 | R 2.62 | S 2.43 | E 2.3 | G 2.3 | F 1.58 | T 2.65 | H 2.21 | Y 2.08 | A 1.99 | P 2.06

Variants of: B2
Assay: as above
Settings: c terminus: a fixed tail appended

Protein stability index, by site and new letter:
L10: G 3.55 | D 3.5 | I 2.84 | P 3.8 | Y 2.22 | C 2.15 | V 3.54 | N 3.54 | W 2.77 | K 3.08 | S 3.4 | H 3.64 | R 3.35 | F 2.6 | E 2.84 | Q 2.78 | A 3.08 | M 3.43 | T 3.16
R14: W 1.94 | L 2.03 | N 3.23 | K 2.61 | V 2.45 | T 2.62 | A 2.9 | E 2.86 | G 2.72 | D 2.65 | S 2.27 | Y 2.05 | C 1.86 | P 2.95 | H 2.77 | F 2.33 | M 1.73 | I 2.04 | Q 3.08
A18: E 3.74 | K 3.19 | L 2.13 | R 3.28 | M 3.25 | S 3.37 | T 3.28 | D 3.84 | V 2.59 | P 3.33 | F 2.49 | I 3.04 | N 2.84 | C 2.88 | Q 2.81 | H 2.86 | W 1.83 | G 3 | Y 2.76
K20: I 2.05 | Q 2.8 | G 2.86 | R 2.12 | L 1.93 | D 3.45 | S 2.86 | E 3.07 | T 3.28 | H 2.97 | W 1.82 | F 1.9 | P 2.62 | A 3.19 | M 2.18 | V 3.22 | C 2.6 | Y 1.86 | N 2.58
H13: P 2.75 | S 2.57 | W 3.04 | R 3.53 | A 2.62 | E 3.42 | N 2.69 | D 2.99 | T 3.16 | K 3.29 | C 2.39 | M 2.36 | F 1.94 | L 1.97 | V 2.1 | Q 3.22 | I 1.89 | G 3.46 | Y 2.24
R12: M 2.25 | Y 2.32 | F 2.41 | D 3.03 | T 3.1 | A 2.82 | C 2.57 | P 3.21 | S 3.16 | W 2.14 | G 2.92 | N 3.36 | Q 3.02 | L 2.65 | V 2.31 | H 3.24 | E 3.54 | K 3.17 | I 2.22
R15: S 3.36 | L 2.02 | G 2.61 | A 2.81 | K 3 | P 3.25 | I 2.56 | N 2.93 | V 2.44 | E 3.28 | T 3.19 | Q 3.07 | F 2.45 | D 2.61 | H 2.92 | M 3.16 | W 2.25 | Y 2.38 | C 1.99
I11: N 3.02 | S 3.8 | W 2.79 | M 3.18 | V 2.92 | A 3.41 | T 3.34 | H 3.31 | K 3.16 | P 3.11 | D 3.9 | Q 4.02 | F 2.79 | G 3.35 | C 3.37 | Y 2.9 | L 2.61 | R 3.67 | E 3.43
S23: Y 2.19 | N 3.05 | K 3.49 | E 3.92 | T 3.03 | A 2.61 | I 2.48 | L 2.54 | H 3.16 | V 2.82 | R 2.93 | Q 2.98 | F 2.43 | P 2.95 | M 2.12 | W 1.76 | C 2.58 | D 3.66 | G 3.32
E21: S 3.3 | R 3.3 | K 3.15 | V 3.1 | N 3.24 | D 2.75 | F 2.04 | G 2.58 | H 2.63 | Y 2.81 | L 1.91 | C 2.36 | T 2.69 | M 2.37 | W 2.19 | P 2.79 | I 2.46 | Q 2.69 | A 2.92
E9: V 1.21 | Q 2.64 | S 3.02 | N 2.84 | T 3.53 | Y 2.18 | W 1.81 | L 2.73 | M 1.66 | R 2.83 | P 3.24
H24: D 3.61 | M 2.5 | E 2.44 | P 3.08 | T 2.97 | S 3.07 | W 2.03 | C 2.78 | G 3.7 | I 2.49 | L 2.68 | V 3.54 | F 2.65 | R 3.15 | A 3.08 | K 3.55 | Q 2.25 | Y 2.46 | N 3.65
P22: V 2.82 | E 4.22 | T 3.02 | I 2.27 | A 3.39 | K 2.92 | W 1.79 | D 3.14 | G 2.71 | M 2.3 | C 2.52 | Q 3.38 | S 3.21 | Y 3.58 | F 1.8 | H 3.42 | N 2.98 | R 3.17 | L 2.93
H17: D 3.36 | E 3.28 | K 3.32 | A 2.77 | V 2.84 | Y 2.16 | W 1.87 | F 2.49 | P 3.02 | S 2.76 | N 2.72 | M 2.75 | C 3.46 | G 3.57 | L 2.99 | R 3.03 | I 2.51 | T 3.28 | Q 3.04
V16: Y 2.74 | K 3.22 | E 3.16 | F 2.87 | Q 3.53 | C 2.52 | N 3.26 | R 3.67 | P 3.35 | D 3.49 | H 3.41 | M 3.43 | S 3.48 | W 2.55 | A 2.71 | I 2.42 | G 3.53 | L 2.9 | T 3.07
R19: D 3.31 | M 3.18 | G 3.01 | C 2.68 | Y 1.81 | I 3.09 | L 1.94 | S 2.8 | H 2.66 | T 2.89 | E 3.53 | N 3.81 | Q 3.44 | F 2.15 | V 2.52 | P 2.37 | W 2.15 | A 2.54 | K 2.82
